In general, Kd refers to the constant that tells how readily two partners part at equilibrium. The low end stands for higher affinity, the high end for lower affinity. As usually defined, the koff is the rate constant with which the complex falls apart. The term kon denotes the second-order rate constant of association. Low values mean slower complex formation, high ones faster complex formation.

The target of assay [1] is T1, activin A (UniProt P08476 311-426).
T1 construct: also called ActA
T1 sequence (looked up): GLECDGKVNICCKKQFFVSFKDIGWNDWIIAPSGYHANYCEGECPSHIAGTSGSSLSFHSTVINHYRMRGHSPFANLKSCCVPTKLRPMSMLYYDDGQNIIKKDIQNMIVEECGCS
The assay is described as follows: SPR (Biacore); ligand coupled, receptor flowed over (as reported in WO2006/012627). An excerpt: (§1) Other variants have been generated and tested, as reported in WO2006/012627 (incorporated herein by reference in its entirety). See, e.g., pp. 59-60, using ligands coupled to the device and flowing receptor over the coupled ligands. […] Table 11 showing data with respect to these variants is reproduced below: […]

The target in assay [2] is T2, GDF11 (UniProt O95390 299-407).
T2 construct: also called BMP11
T2 sequence (looked up): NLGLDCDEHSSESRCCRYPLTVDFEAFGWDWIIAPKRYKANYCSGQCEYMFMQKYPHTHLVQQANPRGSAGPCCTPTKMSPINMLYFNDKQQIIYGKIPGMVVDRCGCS
The description is as above.
Text: as §1

For assay [3], the target named is T1, activin A. Nature of the assay: SPR (Biacore); receptor-Fc captured by anti-hFc antibody, ligand injected. The protocol: (§2) Binding of certain ActRIIB-Fc proteins and ActRIIB variant Fc fusion polypeptides to ligands was tested in a Biacore™ assay.
(§3) The ActRIIB-Fc variants or wild-type protein were captured onto the system using an anti-hFc antibody. Ligands were injected and flowed over the captured receptor proteins.

For the next assay, the target named is T3, GDF8 (UniProt O14793 267-375).
T3 construct: also called myostatin
T3 sequence (looked up): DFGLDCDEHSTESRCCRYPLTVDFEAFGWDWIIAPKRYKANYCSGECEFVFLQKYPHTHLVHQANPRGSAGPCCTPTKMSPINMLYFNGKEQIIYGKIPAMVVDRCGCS
Described as above. The procedure: as §2, §3

Assay [4] deals with T2, GDF11. The assay is described as above. The protocol:
as §2, §3

B1: Soluble ActRIIB-Fc WT (64A) (Fc fusion, UniProt Q13705 19-119, looked up, not shown: a dimerising Fc or GST)
chain: SGRGEAETRECIYYNANWELERTNQSGLERCEGEQDKRLHCYASWANSSGTIELVKKGCWLDDFNCYDRQECVATEENPQVYFCCCEGNFCNERFTHLPEA
notes: Whole entry named
As for B1, the Kd with activin A [1] amounted to 180 nM; with GDF11 [2], 260 nM.

B2: Soluble ActRIIB-Fc D80A (Table 11) (Fc fusion, UniProt Q13705 19-119, looked up, not shown: a dimerising Fc or GST)
chain: SGRGEAETRECIYYNANWELERTNQSGLERCEGEQDKRLHCYASWANSSGTIELVKKGCWLADFNCYDRQECVATEENPQVYFCCCEGNFCNERFTHLPEA
Take B2: the binding result with activin A [1] and in the assay with GDF11 [2] was “no binding” each time.

B3: Soluble ActRIIB-Fc D80N (Table 11) (Fc fusion, UniProt Q13705 19-119, looked up, not shown: a dimerising Fc or GST)
chain: SGRGEAETRECIYYNANWELERTNQSGLERCEGEQDKRLHCYASWANSSGTIELVKKGCWLNDFNCYDRQECVATEENPQVYFCCCEGNFCNERFTHLPEA
As for B3, the binding result with activin A [1] and in the assay with GDF11 [2] was “no binding” each time.

B4: Soluble ActRIIB-Fc D80R (Table 11) (Fc fusion, UniProt Q13705 19-119, looked up, not shown: a dimerising Fc or GST)
chain: SGRGEAETRECIYYNANWELERTNQSGLERCEGEQDKRLHCYASWANSSGTIELVKKGCWLRDFNCYDRQECVATEENPQVYFCCCEGNFCNERFTHLPEA
For the molecule B4, the binding result with activin A [1] and in the assay with GDF11 [2] was “no binding” in each case.

B5: Soluble ActRIIB-Fc D80F (Table 11) (Fc fusion, UniProt Q13705 19-119, looked up, not shown: a dimerising Fc or GST)
chain: SGRGEAETRECIYYNANWELERTNQSGLERCEGEQDKRLHCYASWANSSGTIELVKKGCWLFDFNCYDRQECVATEENPQVYFCCCEGNFCNERFTHLPEA
With B5, the binding result in the assay with activin A [1] and with GDF11 [2] was “no binding” in each case.

B6: Soluble ActRIIB-Fc K55A (Table 11) (Fc fusion, UniProt Q13705 19-119, looked up, not shown: a dimerising Fc or GST)
chain: SGRGEAETRECIYYNANWELERTNQSGLERCEGEQDARLHCYASWANSSGTIELVKKGCWLDDFNCYDRQECVATEENPQVYFCCCEGNFCNERFTHLPEA
Turning to B6, the binding result with GDF11 [2] is given as “no binding”.

B7: Soluble ActRIIB-Fc D80G (Table 11) (Fc fusion, UniProt Q13705 19-119, looked up, not shown: a dimerising Fc or GST)
chain: SGRGEAETRECIYYNANWELERTNQSGLERCEGEQDKRLHCYASWANSSGTIELVKKGCWLGDFNCYDRQECVATEENPQVYFCCCEGNFCNERFTHLPEA
As for B7, the binding result in the assay with activin A [1] and with GDF11 [2] was “no binding” throughout.

B8: Soluble ActRIIB-Fc E37A (Table 11) (Fc fusion, UniProt Q13705 19-119, looked up, not shown: a dimerising Fc or GST)
chain: SGRGEAETRECIYYNANWALERTNQSGLERCEGEQDKRLHCYASWANSSGTIELVKKGCWLDDFNCYDRQECVATEENPQVYFCCCEGNFCNERFTHLPEA
B8: the binding result in the assay with activin A [1] and in the assay with GDF11 [2] was “no binding” in each case.

B9: Soluble ActRIIB-Fc WT (64R) (Fc fusion, UniProt Q13705 19-119, looked up, not shown: a dimerising Fc or GST)
chain: SGRGEAETRECIYYNANWELERTNQSGLERCEGEQDKRLHCYASWRNSSGTIELVKKGCWLDDFNCYDRQECVATEENPQVYFCCCEGNFCNERFTHLPEA
notes: Whole entry named
On to B9, for which the Kd in the assay with GDF11 [2] worked out at 86 nM. This lies in the double-digit nanomolar range.

B10: Soluble ActRIIB-Fc K74A (Table 11) (Fc fusion, UniProt Q13705 19-119, looked up, not shown: a dimerising Fc or GST)
chain: SGRGEAETRECIYYNANWELERTNQSGLERCEGEQDKRLHCYASWANSSGTIELVAKGCWLDDFNCYDRQECVATEENPQVYFCCCEGNFCNERFTHLPEA
For the molecule B10, the dissociation constant Kd with activin A [1] amounted to 4.35 nM; with GDF11 [2], 5.3 nM.

B11: Soluble ActRIIB-Fc D80M (Table 11) (Fc fusion, UniProt Q13705 19-119, looked up, not shown: a dimerising Fc or GST)
chain: SGRGEAETRECIYYNANWELERTNQSGLERCEGEQDKRLHCYASWANSSGTIELVKKGCWLMDFNCYDRQECVATEENPQVYFCCCEGNFCNERFTHLPEA
Regarding B11, the binding result in the assay with activin A [1] and in the assay with GDF11 [2] was “no binding” each time.

B12: Soluble ActRIIB-Fc D80K (Table 11) (Fc fusion, UniProt Q13705 19-119, looked up, not shown: a dimerising Fc or GST)
chain: SGRGEAETRECIYYNANWELERTNQSGLERCEGEQDKRLHCYASWANSSGTIELVKKGCWLKDFNCYDRQECVATEENPQVYFCCCEGNFCNERFTHLPEA
For the molecule B12, the binding result with activin A [1] and with GDF11 [2] was “no binding” each time.

B13: Soluble ActRIIB-Fc R56A (Table 11) (Fc fusion, UniProt Q13705 19-119, looked up, not shown: a dimerising Fc or GST)
chain: SGRGEAETRECIYYNANWELERTNQSGLERCEGEQDKALHCYASWANSSGTIELVKKGCWLDDFNCYDRQECVATEENPQVYFCCCEGNFCNERFTHLPEA
On to B13, for which the binding result in the assay with activin A [1] and in the assay with GDF11 [2] was “no binding” each time.

B14: Soluble ActRIIB-Fc W78A (Table 11) (Fc fusion, UniProt Q13705 19-119, looked up, not shown: a dimerising Fc or GST)
chain: SGRGEAETRECIYYNANWELERTNQSGLERCEGEQDKRLHCYASWANSSGTIELVKKGCALDDFNCYDRQECVATEENPQVYFCCCEGNFCNERFTHLPEA
For the molecule B14, the binding result with activin A [1] and in the assay with GDF11 [2] was “no binding” in each case.

B15: ActRIIB(R64K 20-129)-hFc (Fc fusion)
chain: GRGEAETRECIYYNANWELERTNQSGLERCEGEQDKRLHCYASWKNSSGTIELVKKGCWLDDFNCYDRQECVATEENPQVYFCCCEGNFCNERFTHLPEAGGPEVTYEPPGGGTHTCPPCPAPELLGGPSVFLFPPKPKDTLMISRTPEVTCVVVDVSHEDPEVKFNWYVDGVEVHNAKTKPREEQYNSTYRVVSVLTVLHQDWLNGKEYKCKVSNKALPVPIEKTISKAKGQPREPQVYTLPPSREEMTKNQVSLTCLVKGFYPSDIAVEWESNGQPENNYKTTPPVLDSDGSFFLYSKLTVDKSRWQQGNVFSCSVMHEALHNHYTQKSLSLSPGK
In the assay with activin A [3], B15 returned an equilibrium dissociation constant (Kd) of 0.0841 nM, a koff of 0.000628 s⁻¹ and an on-rate (kon) of 7.46e+06 M⁻¹ s⁻¹. Also, in the assay with GDF8, the affinity, expressed as Kd, was 2.15 nM and the koff came out at 0.000209 s⁻¹.

B16: ActRIIB(A24N 20-134)-hFc (Fc fusion)
chain: GRGENETRECIYYNANWELERTNQSGLERCEGEQDKRLHCYASWRNSSGTIELVKKGCWLDDFNCYDRQECVATEENPQVYFCCCEGNFCNERFTHLPEAGGPEVTYEPPPTAPTGGGTHTCPPCPAPELLGGPSVFLFPPKPKDTLMISRTPEVTCVVVDVSHEDPEVKFNWYVDGVEVHNAKTKPREEQYNSTYRVVSVLTVLHQDWLNGKEYKCKVSNKALPVPIEKTISKAKGQPREPQVYTLPPSREEMTKNQVSLTCLVKGFYPSDIAVEWESNGQPENNYKTTPPVLDSDGSFFLYSKLTVDKSRWQQGNVFSCSVMHEALHNHYTQKSLSLSPGK
In the assay with activin A [3], B16 came in with a dissociation constant (Kd) of 0.104 nM, an off-rate (koff) of 0.000346 s⁻¹ and a kon of 3.34e+06 M⁻¹ s⁻¹. In addition, in the assay with GDF11 [4], the dissociation constant Kd amounted to 0.0519 nM and the koff was determined as 6.35e-05 s⁻¹.

B17: ActRIIB(L79D 20-134)-hFc (Fc fusion)
chain: GRGEAETRECIYYNANWELERTNQSGLERCEGEQDKRLHCYASWRNSSGTIELVKKGCWDDDFNCYDRQECVATEENPQVYFCCCEGNFCNERFTHLPEAGGPEVTYEPPPTAPTGGGTHTCPPCPAPELLGGPSVFLFPPKPKDTLMISRTPEVTCVVVDVSHEDPEVKFNWYVDGVEVHNAKTKPREEQYNSTYRVVSVLTVLHQDWLNGKEYKCKVSNKALPVPIEKTISKAKGQPREPQVYTLPPSREEMTKNQVSLTCLVKGFYPSDIAVEWESNGQPENNYKTTPPVLDSDGSFFLYSKLTVDKSRWQQGNVFSCSVMHEALHNHYTQKSLSLSPGK
In the assay with GDF8, B17 displayed a Kd of 2.15 nM and a koff of 0.00083 s⁻¹. In the assay with GDF11 [4], this molecule displayed a Kd of 0.655 nM and a koff of 0.000439 s⁻¹.

B18: ActRIIB(P129S, P130R 20-134)-hFc (Fc fusion)
chain: GRGEAETRECIYYNANWELERTNQSGLERCEGEQDKRLHCYASWRNSSGTIELVKKGCWLDDFNCYDRQECVATEENPQVYFCCCEGNFCNERFTHLPEAGGPEVTYEPSRTAPTGGGTHTCPPCPAPELLGGPSVFLFPPKPKDTLMISRTPEVTCVVVDVSHEDPEVKFNWYVDGVEVHNAKTKPREEQYNSTYRVVSVLTVLHQDWLNGKEYKCKVSNKALPVPIEKTISKAKGQPREPQVYTLPPSREEMTKNQVSLTCLVKGFYPSDIAVEWESNGQPENNYKTTPPVLDSDGSFFLYSKLTVDKSRWQQGNVFSCSVMHEALHNHYTQKSLSLSPGK
In the assay with activin A [3], B18 registered a Kd of 0.0831 nM, a koff of 0.000417 s⁻¹ and a kon of 5.02e+06 M⁻¹ s⁻¹. In the assay with GDF8, this molecule yielded a Kd of 1.67 nM and a koff of 0.00018 s⁻¹.

B19: ActRIIB(K74A 20-134)-hFc (Fc fusion)
chain: GRGEAETRECIYYNANWELERTNQSGLERCEGEQDKRLHCYASWRNSSGTIELVAKGCWLDDFNCYDRQECVATEENPQVYFCCCEGNFCNERFTHLPEAGGPEVTYEPPPTAPTGGGTHTCPPCPAPELLGGPSVFLFPPKPKDTLMISRTPEVTCVVVDVSHEDPEVKFNWYVDGVEVHNAKTKPREEQYNSTYRVVSVLTVLHQDWLNGKEYKCKVSNKALPVPIEKTISKAKGQPREPQVYTLPPSREEMTKNQVSLTCLVKGFYPSDIAVEWESNGQPENNYKTTPPVLDSDGSFFLYSKLTVDKSRWQQGNVFSCSVMHEALHNHYTQKSLSLSPGK
For B19, in the assay with GDF8, the Kd stood at 0.0718 nM and the off-rate constant (koff) came to 2.03e-05 s⁻¹.

B20: Soluble ActRIIB-Fc +15tail (Fc fusion, UniProt Q13705 19-134, looked up)
chain: SGRGEAETRECIYYNANWELERTNQSGLERCEGEQDKRLHCYASWANSSGTIELVKKGCWLDDFNCYDRQECVATEENPQVYFCCCEGNFCNERFTHLPEAGGPEVTYEPPPTAPT
notes: not shown: linker and Fc
In turn, B20 yielded a Kd in the assay with activin A [1] of around 26 nM.

The values above are taken from US20230129812A1 (ACCELERON PHARMA, published 2023).
